Article PMC9886975, “Ligand recognition mechanism of the human relaxin family peptide receptor 4 (RXFP4)” (Nature Communications, 2023)
Ends that are not written are not given here.

B1: recombinant two-chain human insulin-like peptide 5 (INSL5) (ligand)
chain 1: QDLQTLCCTDGCSMTDLSALC
chain 2: KESVRLCGLEYIRTVIYICASSRW

What was measured:
[1] = system: RXFP4; conditions: R23^BA ref 34; R23^BE ref 35; cited from earlier work
Source text: Despite these advances, difficulties in obtaining sufficient quantities of native INSL5 hampered our efforts in further exploring the biology of the peptide and its cognate receptor. […] In addition to peptidic analogs, small molecule modulators have been reported in recent years. […] The N-terminal residues (R5^B to L9^B) adopted a loop that is clasped by a short N-terminal α-helix of the A chain through one disulfide bond (C8^A‒C7^B). W24^B contributed massive polar and nonpolar interactions to stabilize the peptide binding via both side chain indole and the carboxylic acid group. The former made a hydrogen bond with T121^3.32 (superscripts denote Ballesteros–Weinstein numbering[32]), as well as cation- ...

[2] = biological target: human RXFP4 H299A mutant (human) (UniProt Q8TDU9)
Chain of human RXFP4 H299A mutant (human) (Q8TDU9 whole entry H299A): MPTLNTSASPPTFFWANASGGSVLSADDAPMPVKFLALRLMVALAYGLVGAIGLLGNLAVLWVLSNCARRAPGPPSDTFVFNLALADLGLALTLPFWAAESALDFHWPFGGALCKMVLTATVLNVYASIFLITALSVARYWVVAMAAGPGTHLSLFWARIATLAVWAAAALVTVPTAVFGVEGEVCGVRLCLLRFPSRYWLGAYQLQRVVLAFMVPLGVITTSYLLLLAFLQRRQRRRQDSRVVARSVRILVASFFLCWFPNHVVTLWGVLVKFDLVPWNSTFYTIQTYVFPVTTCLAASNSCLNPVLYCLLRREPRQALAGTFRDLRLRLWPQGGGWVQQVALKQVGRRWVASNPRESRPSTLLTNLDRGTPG

[3] = biological target: T1, human RXFP4 stably expressed on CHO-K1 cells (hRXFP4-CHO) (human, UniProt Q8TDU9 1-374); experiment: competitive binding of a europium-labelled ligand on cells (time-resolved fluorescence); CHO-K1 cells stably transfected with RXFP4 on poly-L-lysine 96-well plates; 5 nM Eu-R3/I5 with increasing amounts of ligand; one-site binding curve; conditions: one partner purified
T1 construct: relaxin family peptide receptor 4 (RXFP4), human, on stably transfected CHO-K1 cells; source: CHO-K1 cells, stably transfected, on cells
T1 sequence (Q8TDU9 whole entry): as the sequence (Q8TDU9 whole entry H299A) above, with A299H counted along it

[4] = biological target: T1, human RXFP4 stably expressed on CHO-K1 …; experiment: cell-based or functional assay

Molecule | potency of R23^B mutant vs INSL5 [1] | INSL5-induced cAMP response in HEK293T cells transfected with the mutant receptor: reduction of Emax against wild type [2] | pKi [3] | inhibition of forskolin-induced cAMP responses in CHO-K1 cells stably transfected with RXFP4 (pEC50) [4]
R23^BA: INSL5 with R23^B replaced by alanine (Insulin-like peptide INSL5 B … KESVRLCGLEYIRTVIYICASSAW; Insulin-like peptide INSL5 A … QDLQTLCCTDGCSMTDLSALC; disulfide (positions not given here); ends not checked; also: three disulfide bonds, places not given here; UniProt Q9Y5Q6 23-46; Q9Y5Q6 115-135, looked up, variant R23A) | reduced potencies | – | – | –
B1 | – | 70% | 8.19 | 8.8
